Experiment [1] addresses T1, human 51-kDa pseudo-Cath-D (human, UniProt P07339 47-412, limits assumed).
T1 construct: domain: 51-kDa pseudo-Cath-D
Kind of experiment: cleavage of fluorogenic substrate M2295 by pseudo-Cath-D at pH 6, competitive inhibition fit (n=3).

Experiment [2] concerns the target T2, human mature (34+14-kDa) Cath-D (human, UniProt P07339 65-162; P07339 169-412).
T2 construct: domain: 14-kDa light chain;domain: 34-kDa heavy chain; Purified from human liver (Sigma Aldrich); also called mature Cath-D; mature cath-D
Put plainly: cleavage of fluorogenic substrate M0938 by mature Cath-D at pH 6, competitive inhibition fit (n=3).

Numbering of substitutions follows the chain as printed.

We go through two molecules from US20180127510A1 (INSERM INSTITUT NATIONAL DE LA SANT ET DE LA RECHERCHE M …, published 2018).

By Ki is commonly meant a dissociation constant, usually derived from enzyme kinetics or from competition with a known ligand. Read a high Ki as a looser hold on the target.

T1 sequence (P07339 47-412 limits assumed): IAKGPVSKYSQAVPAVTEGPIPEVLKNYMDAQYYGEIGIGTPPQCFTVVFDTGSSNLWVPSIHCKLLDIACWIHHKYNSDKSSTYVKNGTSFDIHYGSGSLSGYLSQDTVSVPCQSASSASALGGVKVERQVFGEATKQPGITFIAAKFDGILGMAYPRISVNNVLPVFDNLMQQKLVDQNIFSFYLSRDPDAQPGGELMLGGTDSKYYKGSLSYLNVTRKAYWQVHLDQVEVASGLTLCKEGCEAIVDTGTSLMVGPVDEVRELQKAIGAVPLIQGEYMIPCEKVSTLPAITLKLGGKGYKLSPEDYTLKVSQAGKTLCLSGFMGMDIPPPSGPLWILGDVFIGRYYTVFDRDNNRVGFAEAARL
T2 sequence (P07339 65-162 limits assumed, chain 1 of 2): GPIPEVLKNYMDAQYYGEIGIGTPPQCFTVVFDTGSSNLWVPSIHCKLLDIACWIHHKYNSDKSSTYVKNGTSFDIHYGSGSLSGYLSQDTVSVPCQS
T2 sequence (P07339 169-412 limits assumed, chain 2 of 2): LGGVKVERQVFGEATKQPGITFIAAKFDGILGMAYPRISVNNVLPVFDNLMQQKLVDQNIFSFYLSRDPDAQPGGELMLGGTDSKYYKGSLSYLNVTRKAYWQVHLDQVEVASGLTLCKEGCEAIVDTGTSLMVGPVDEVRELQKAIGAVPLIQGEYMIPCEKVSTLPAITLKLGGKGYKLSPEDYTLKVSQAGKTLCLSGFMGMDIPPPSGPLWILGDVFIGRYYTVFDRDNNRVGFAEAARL

B1: anti-Cath-D scFv E2 (scFv, V domains shown)
VH: EVQLVESGGSLVKPGGSLRLSCAASGFTFSNSYMNWVRQAPGKGLEWISYISGSSRYSYADFVKGRFTISRDNATNSLYLQMNSLRAEDTAVYYCVRSSNSYFGGGMDVWGRGTLVTVSS
VL: QSVLTQPASVSGSPGQSITISCAGTSSDVGGSYGVSWYQQHPGKAPKLMIYGDSYRPSGVSNRFSGSKSGNTASLTISGLQAEDEADYYCSSYTNYSTRVFGGGTKLAVL
Turning to B1, the Ki in experiment [1] stood at 754 nM; in experiment [2], 24 nM.

B2: anti-Cath-D scFv F1 (scFv, V domains shown)
VH: EVQLVESGGSLVKPGGSLRLSCAASGFTSNNYMNWVRQAPGKGLEWISYISGSSRYISYADFVKGRFTISRDNATNSLYLQMNSLRAEDTAVYYCVRSSNSGGMDVWGRGTLVTVSS
VL: B1 VL with S32Y, G52Y, N95S, Y96N
As for B2, the Ki in experiment [1] came out at 212 nM; in experiment [2], 100 nM.
